Source: US7968692B2, “Elongase genes and uses thereof” (Abbott Laboratories, priority 1998, dated 2011)

Test system: S. cerevisiae 334
Assay: Human elongase HSELO1 activity in yeast
Type: cell-based, Saccharomyces cerevisiae
Protocol: The construct pRAE-58-A1 was transformed into S. cerevisiae 334 (Hoveland et al., supra) and screened for elongase activity. The negative control strain was S. cerevisiae 334 containing pYX242 vector. The cultures were grown for 24 hours at 30° C., in selective media (Ausubel et al., supra), in the presence of 25 μM of GLA or AA. In this study, DGLA or adrenic acid (ADA, 22:4n-6), respectively, was the predicted product of human elongase activity. […] Thus, the human elongase converts both 18 and 20 carbon chain long PUFAs to their respective elongated fatty acids.
To further confirm the substrate specificity of the human elongation enzyme, described above and referred to herein as HSELO1, the recombinant yeast strain 334(pRAE-58-A1) was grown in minimal media containing n-6 fatty acids GLA, AA, or n-3 fatty acids ALA, STA, or EPA. […] The levels of these fatty acids were 7.29% (DGLA), 6.26% (ADA), 6.15% (ETrA), 10.06% (ETA), and 6.66% (DPA), respectively, of the total fatty acids in the strain containing the pRAE-58-A1 sequence.
To confirm this hypothesis, 25 μM of exogenous OA was added as a substrate to the recombinant yeast strain 334(pRAE-58-A1).
To determine whether the substrate concentration affects the conversion of 18 and 20 carbon fatty acids to the respective elongated products, two different concentrations of GLA, AA, and EPA were examined (FIG. 52).
Although the addition of more substrates led to higher percentages of the two carbon elongated products, the overall conversion rate decreased by at least 35%.
To further confirm the substrate specificity of HSELO1p, the recombinant yeast strain 334(pRAE-58-A1) was grown in minimal media containing 25 μM of saturated, monounsaturated, or PUFAs. […] However, this is not an increase in the level of OA compared to the samples where PTA was not added, as OA was 25-31% of the total fatty acids in all samples. […] The levels of these fatty acids were 0.74% (C20:2n-6), 2.46% (DGLA), and 2.14% (ADA), respectively, of the total fatty acids in the lysates of 334(pRAE-58-A1). […] HSELO1p is also involved in the elongation of n-3 PUFAs ALA, STA, and EPA, but not DPA (FIG. 53C). […] The levels of these fatty acids were 1.03% ETrA, 2.24% (ETA), and 3.19% (DPA), respectively, of the total fatty acids in the strain containing the pRAE-58-A1 sequence.

B1: HSELO1: human elongase from liver cDNA (SEQ ID NO:3), expressed in yeast from pRAE-58-A1 (protein, listed as Homo sapiens)
chain: MEHFDASLSTYFKALLGPRDTRVKGWFLLDNYIPTFICSVIYLLIVWLGPKYMRNKQPFSCRGILVVYNLGLTLLSLYMFCELVTGVWEGKYNFFCQGTRTAGESDMKIIRVLWWYYFSKLIEFMDTFFFILRKNNHQITVLHVYHHASMLNIWWFVMNWVPCGHSYFGATLNSFIHVLMYSYYGLSSVPSMRPYLWWKKYITQGQLLQFVLTIIQTSCGVIWPCTFPLGWLYFQIGYIISLIALFTNFYIQTYNKKGASRRKDHLKDHQNGSVAAVNGHTNSFSPLENNVKPRKLRKD
25 μM AA, 24 hours at 30° C., FIG. 45
  level of ADA, of total fatty acids: 1.21%
25 μM AA, FIG. 52
  conversion of AA to ADA: 27.5%
  level of ADA, of the total fatty acids: 2.91%
25 μM AA, FIG. 53B
  conversion of AA to ADA: 27.1%
  level of ADA, of the total fatty acids: 2.14%
25 μM ALA, FIG. 53C
  conversion of ALA to ETrA: 22.2%
  level of ETrA, of the total fatty acids: 1.03%
25 μM EPA, FIG. 52
  conversion of EPA to DPA: 70.3%
  level of DPA, of the total fatty acids: 4.82%
25 μM EPA, FIG. 53C
  conversion of EPA to DPA: 39.5%
  level of DPA, of the total fatty acids: 3.19%
25 μM GLA, 24 hours at 30° C., FIG. 45
  level of DGLA, of total fatty acids: 2.75%
25 μM GLA, FIG. 52
  conversion of GLA to DGLA: 62.4%
  level of DGLA, of the total fatty acids: 3.95%
25 μM GLA, FIG. 53B
  conversion of GLA to DGLA: 51.4%
  level of DGLA, of the total fatty acids: 2.46%
25 μM LA, FIG. 53B
  conversion of LA to C20:2n-6: 13.2%
  level of C20:2n-6, of the total fatty acids: 0.74%
25 μM STA, FIG. 53C
  conversion of STA to ETA: 61.9%
  level of ETA, of the total fatty acids: 2.24%
25 μM of exogenous OA
  conversion of OA to EA: 8.9%
25 μM of exogenous OA, FIG. 51
  accumulation of EA, of the total fatty acids: 2.25%
25 μM substrate
  elongation of monounsaturated fatty acids OA and EA: also not involved
25 μM substrate, FIG. 53A
  elongation of saturated fatty acids PA, SA, ARA, BA: not involved
25 μM substrate, FIG. 53B
  elongation of n-6 PUFAs DGLA or ADA: but not DGLA or ADA
25 μM substrate, FIG. 53C
  elongation of n-3 PUFA DPA: but not DPA
100 μM AA, FIG. 52
  conversion of AA to ADA: 15.7%
  level of ADA, of the total fatty acids: 3.90%
100 μM EPA, FIG. 52
  conversion of EPA to DPA: 45.7%
  level of DPA, of the total fatty acids: 11.50%
100 μM GLA, FIG. 52
  conversion of GLA to DGLA: 39.8%
  level of DGLA, of the total fatty acids: 9.56%
100 μM versus 25 μM of substrates GLA, AA, EPA
  decrease of overall conversion rate: at least 35%
PTA added as a substrate, not an increase, OA was 25-31% in all samples
  OA, of the total fatty acids: 12.76%
Endogenous substrate
  endogenous conversion of C16:1n-7 to C18:1n-7: 20.4%
  endogenous conversion of C18:1n-7 to C20:1n-7: 58.1%
Substrate AA, FIG. 51
  conversion of AA to ADA: 42.7%
  level of ADA, of the total fatty acids: 6.26%
Substrate ALA, FIG. 51
  conversion of ALA to ETrA: 30.4%
  level of ETrA, of the total fatty acids: 6.15%
Substrate EPA, FIG. 51
  conversion of EPA to DPA: 71.7%
  level of DPA, of the total fatty acids: 6.66%
Substrate GLA, FIG. 51
  conversion of GLA to DGLA: 78.3%
  level of DGLA, of the total fatty acids: 7.29%
Substrate STA, FIG. 51
  conversion of STA to ETA: 79.2%
  level of ETA, of the total fatty acids: 10.06%
